{
  "source": "patent US20120165340",
  "proteins": {"B1": {"name": "Lyn (protein)", "chain": "GCIKSKGKDSLSDDGVDLKTQPVRNTERTIYVRDPTSNKQQRPVPESQLLPGQRFQTKDPEEQGDIVVALYPYDGIHPDDLSFKKGEKMKVLEEHGEWWKAKSLLTKKEGFIPSNYVAKLNTLETEEWFFKDITRKDAERQLLAPGNSAGAFLIRESETLKGSFSLSVRDFDPVHGDVIKHYKIRSLDNGGYYISPRITFPCISDMIKHYQKQADGLCRRLEKACISPKPQKPWDKDAWEIPRESIKLVKRLGAGQFGEVWMGYYNNSTKVAVKTLKPGTMSVQAFLEEANLMKTLQHDKLVRLYAVVTREEPIYIITEYMAKGSLLDFLKSDEGGKVLLPKLIDFSAQIAEGMAYIERKNYIHRDLRAANVLVSESLMCKIADFGLARVIEDNEYTAREGAKFPIKWTAPEAINFGCFTIKSDVWSFGILLYEIVTYGKIPYPGRTNADVMTALSQGYRMPRVENCPDELYDIMKMCWKEKAEERPTFDYLQSVLDDFYTATEGQYQQQP"}},
  "target": "FLAG-HA-PTEN, P60484",
  "sequence (P60484 whole entry)": "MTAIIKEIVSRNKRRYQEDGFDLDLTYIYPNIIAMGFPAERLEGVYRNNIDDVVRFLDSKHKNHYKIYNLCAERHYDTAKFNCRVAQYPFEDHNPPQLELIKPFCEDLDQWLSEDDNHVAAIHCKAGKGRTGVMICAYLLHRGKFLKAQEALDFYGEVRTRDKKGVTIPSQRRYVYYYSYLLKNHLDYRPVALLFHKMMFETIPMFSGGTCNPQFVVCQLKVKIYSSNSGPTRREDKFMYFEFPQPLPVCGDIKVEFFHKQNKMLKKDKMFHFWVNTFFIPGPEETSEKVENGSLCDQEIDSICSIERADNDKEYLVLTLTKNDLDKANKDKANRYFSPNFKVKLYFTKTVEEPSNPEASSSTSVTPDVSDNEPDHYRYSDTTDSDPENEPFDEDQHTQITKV",
  "data": [
    {"protein": "B1", "values": [
      {"measurement": "phosphorylation of PTEN on Y240 (Western blot with anti-pY240)", "value": "Upon co-expression of the Lyn cDNA with PTEN in HEK 293 cells, we observed a robust phosphorylation of PTEN on Y240"},
      {"measurement": "phosphorylation of Y240 of PTEN (Western blot, FIG. 15)", "value": "the phosphorylation of Y240 is much greater in the presence of lyn than when src is expressed with PTEN"}
    ]}
  ]
}
